In general, stoichiometry N refers to the number of molecules, sites or subunits per partner or assembly. By koff is commonly meant the first-order rate constant of dissociation. A higher koff goes with fast dissociation.

The target of experiment [1] is Rabbit skeletal muscle actin (RMA), as filaments (rabbit) (UniProt P68135).
The target of experiment [2] is GST-549-SNAP-N-IQGAP1 (GST-SNAP-N-IQGAP1-6His, 1-522) (UniProt P46940). The experiment in a line: single-molecule step photobleaching.
In experiment [3] the target is Rabbit skeletal muscle actin (RMA), as filaments (rabbit) (UniProt P68135). Description: single-molecule microfluidics-assisted TIRF microscopy.

In turn, “6His-N-IQGAP1 (1-522) (from UniProt P46940 1-522) (domain or fragment)” displayed a barbed end depolymerization rate in mf-TIRF: IC50 of N-IQGAP1 in experiment [1] of 0.3 nM.

In turn, “GST-549-SNAP-N-IQGAP1 (GST-SNAP-N-IQGAP1-6His, 1-522) (from UniProt P46940 1-522) (domain or fragment)” returned a stoichiometry N in experiment [2] of 2. Further, in experiment [3], the average dwell time on filament sides was 6.8 min and the koff came out at 0.0025 s⁻¹.

The values above are taken from publication doi:10.1101/2021.04.18.440338.
